Experiments:
PDGF-BB [1] = target: T1, PDGF-BB (UniProt P01127 P01127:82-190); test: fluorescence thermal melt in solution; Tm about 55 C unbound to about 65 C bound; 1x PBS, 1 mM MgCl2, 0.1 mg/ml BSA; settings: chain copies: 2 (homodimer, inferred); label: 5' fluorescein, 3' Black Hole Quencher 1
Method: In one representative experiment, aptamer comprising a competent binding state and a dye pair (fluoresceine and black hole quencher) was measured for their persistence in the changed environment of temperature as described herein. […] PDGF-BB, bovine serum albumine (BSA), magnesium chrolide, and phosphate buffered saline (PBS) all other buffers were ordered from Sigma-Millipore. 41T aptamer at a concentration of either 316 nM, or 100 nM, or 31.6 nM, or 10 nM were mixed with variable concentrations PDGF-BB (from […] dilution factor) in 1× PBS containing 1 mM MgCl₂, and 0.1 mg/ml BSA on white 384 well PCR plate (BioRad) and subjected to the following thermal protocol on BioRad CFX384 qPCR instrument: lid at 95° C., melting curve step from 30° C. to 80° C. with images (FAM/SYBR channel) every 0.5° C., 10 seconds per step. FIG. 5 presents melting curves (left panels) and the first derivative (right panels) of thermal titration experiments. To estimate the relative populations of free aptamers and aptamers bound to the target (% bound), the areas under the curve of the first derivative (dRFU/dT) were integrated for both unbound (left peak with Tₘ˜55° C.) and bound (right peak with Tₘ˜65° C.) peaks. % bound as a function of the target concentration is presented as a dose response in FIG. 6.

PDGF-BB [2] = target: T1, PDGF-BB; test: surface thermal melt; Tm about 32 C unbound to about 42 C bound; 0.75 mg/mL HSA, 40% DMSO; also bound peak about 55 C with 100 nM in human plasma without DMSO; settings: chain copies: 2 (homodimer, inferred); label: 3' Cy3
Method: (§1) PDGF-BB and PDGF-AA were obtained from R&D Systems (Minneapolis, USA). Human serum albumine (HSA), phosphate buffered saline (PBS) and all other reagents were ordered from Sigma-Millipore. The aptamer was covalently linked to the solid support by spotting 4.5 μL of the 0.25 uM aptamer solution in 1× PBS buffer. The spots were incubated for 10 minutes to allow for surface immobilization and washed with 1× PBS buffer. Solutions with a variable amount of PDGF-BB or PDGF-AA (630 nM to 2 nM 3.16× dilution series or 300 nM to 75 nM 2× dilution series, respectively) and containing 0.75 mg/mL. HSA, 40% DMSO (v/v) were applied to the surface coated with the aptamers and incubated for 5 minutes at room temperature. The temperature was increased to 45° C. by placing the slide on a heating element. The change in fluorescence intensity of the modified aptamer was as a function of temperature was monitored by fluorescence microscope coupled to a CMOS sensor. FIGS. 9A and 10 presents normalized first derivative of the melting curves for PDGF-BB or PDGF-AA titration experiments, respectively. […]

PDGF-AA = PDGF-AA (UniProt P04085 P04085:87-211); test: surface thermal melt, 75-300 nM PDGF-AA; no binding and no dose response; 0.75 mg/mL HSA, 40% DMSO; settings: tags: R&D Systems; chain copies: 2 (homodimer, inferred); label: 3' Cy3
Method: as §1, with “The solid support consisted of coated ITO glass slides functionalized with azido groups (Sikemia, Grabels, France) to form a covalent bond between the DBCO-labeled aptamer and the surface. PDGF-BB and” for “PDGF-BB and”

T1 sequence (P01127 82-190, one chain of several): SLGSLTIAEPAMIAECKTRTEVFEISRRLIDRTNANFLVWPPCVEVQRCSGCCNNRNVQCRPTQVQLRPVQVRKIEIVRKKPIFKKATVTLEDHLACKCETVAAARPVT

| Binder | binding result (PDGF-BB [1]) | binding result (PDGF-BB [2]) | binding result (PDGF-AA) |
| --- | --- | --- | --- |
| TACTCAGGGCACTGCAAGCAATTGTGGTCCCAATGGGCTGAGTA (ssDNA) [41T aptamer (solution, FIG. 4A)] | binds | – | – |
| TTTTTTACTCAGGGCACTGCAAGCAATTGTGGTCCCAATGGGCTGAGTA (ssDNA, 5' DBCO-TEG via five-thymidine linker, thymine-linked Black Hole Quencher 2) [41T aptamer (surface-immobilized, FIG. 4B)] | – | binds | no binding |

— US20250314646, “SYSTEMS AND METHODS FOR ANALYTE DETECTION IN BIOLOGICAL SOLUTIONS” (eGlint, Inc., published 2025)
